Experimental data from patent publication US20090203706A1, “LYSINE-BASED POLYMERIC LINKERS” (priority 2006, published 2009).

Assay: Rate of hydrolysis of PEG prodrugs in rat plasma (HPLC)
Type: in vitro ADME
Details: 37° C., disappearance of PEG derivative
Description: The rates of hydrolysis were obtained by employing a C8 reversed phase column (Zorbax® SB-C8) using a gradient mobile phase made of (a) 0.1 M triethylammonium acetate buffer and (b) acetonitrile. A flow rate of 1 mL/min was used, and chromatograms were monitored using a UV detector. For hydrolysis in buffer, PEG derivatives were dissolved in 0.1 M pH 7.4 PBS at a concentration of 5 mg/mL, while for hydrolysis in plasma, the derivatives were dissolved in distilled water at a concentration of 20 mg/100 μL and 900 μL of rat plasma was added to this solution. The mixture was vortexed for 2 min and divided into 2 mL glass vials with 100 μL of the aliquot per each vial. The solutions were incubated at 37° C. for various periods of time. A mixture of methanol-acetonitrile (1:1, v/v, 400 μL) was added to a vial at the proper interval and the mixture was vortexed for 1 min, followed by filtration through […] filter membrane (optionally followed by a second filtration through […] filter membrane). An aliquot of 20 μL of the filtrate was injected into the HPLC. On the basis of the peak area, the amounts of native compound and PEG derivative were estimated, and the half-life of each compound in different media was calculated using linear regression analysis from the disappearance of PEG derivative.

PEG-[Lys (DGA-SCH AF)2]2 [Compound 12a] gave a t1/2α of hydrolysis of 5 h and a t1/2β of hydrolysis of 15 h.
